Assay results reported in article PMC8584237, “Helicobacter pylori Neutrophil-Activating Protein Directly Interacts with and Activates Toll-like Receptor 2 to Induce the Secretion of Interleukin-8 from Neutrophils and ATRA-Induced Differentiated HL-60 Cells” (International Journal of Molecular Sciences, 2021).

Molecular target: T1, Recombinant human TLR2 protein Glu21-Leu590, with a C-terminal 10-His tag (human, UniProt O60603 21-590)
T1 construct: Human Toll-like receptor 2, residues Glu21-Leu590; In the functional rows the TLR2 is the endogenous receptor on neutrophils or ATRA-differentiated HL-60 cells, not this soluble construct; also called TLR2-10xHis; Toll-like receptor 2; source: bought: R&D Systems (Cat. # 2616-TR-050); not shown: His10, C-terminal, kept
Assay: ELISA; Competitive ELISA: 0.625 μg TLR2-10xHis in 100 µL PBS-T pre-incubated with 0.78125-50 μg Pam3CSK4 or BSA (control), then added to wells coated with 0.05 µg HP-NAP, room temperature 2 h; detected with anti-6x His tag antibody
Details: both partners purified

T1 sequence (O60603 21-590): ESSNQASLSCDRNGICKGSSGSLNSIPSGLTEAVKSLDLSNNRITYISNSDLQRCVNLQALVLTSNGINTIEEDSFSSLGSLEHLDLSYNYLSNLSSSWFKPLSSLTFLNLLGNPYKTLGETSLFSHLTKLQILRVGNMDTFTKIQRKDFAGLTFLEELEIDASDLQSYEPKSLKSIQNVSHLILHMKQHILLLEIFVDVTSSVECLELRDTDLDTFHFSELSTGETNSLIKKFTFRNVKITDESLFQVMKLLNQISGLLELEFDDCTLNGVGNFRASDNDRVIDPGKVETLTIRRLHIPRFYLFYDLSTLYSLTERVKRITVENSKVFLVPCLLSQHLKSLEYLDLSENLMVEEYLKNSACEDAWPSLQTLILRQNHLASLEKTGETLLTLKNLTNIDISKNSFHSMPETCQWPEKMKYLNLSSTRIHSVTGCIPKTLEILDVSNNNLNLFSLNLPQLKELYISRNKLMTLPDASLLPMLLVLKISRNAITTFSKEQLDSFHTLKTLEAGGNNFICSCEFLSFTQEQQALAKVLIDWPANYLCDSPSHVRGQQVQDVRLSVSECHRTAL

B1: Helicobacter pylori neutrophil-activating protein (natural protein)
chain: MKTFEILKHLQADAIVLFMKVHNFHWNVKGTDFFNVHKATEEIYEEFADMFDDLAERIVQLGHHPLVTLSEAIKLTRVKEETKTSFHSKDIFKEILEDYKYLEKEFKELSNTAEKEGDKVTVTYADDQLAKLQKSIWMLQAHLA
notes: also called HP-NAP; NAP; source: E. coli BL21(DE3) carrying pET42a-NAP, purified (two gel-filtration steps: Sephacryl S-300, Superdex 200; endotoxin removed); copies: 12
- binding result: binds
